Reference: the nanobody polyreactivity screen of Harvey et al. (2022)

Experiment: yeast display, Sf9 membrane polyspecificity reagent, FACS + sequencing; frameworks hold sequencing errors
In short: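 A synthetic nanobody library was expressed on Saccharomyces cerevisiae BJ5465 by galactose induction for 36–48 hours. The library was stained for 1 hour at 4 °C with 10% biotinylated, detergent-solubilized Sf9 membrane reagent and enriched with streptavidin microbeads before FACS. Low and high (top ~1%) gates were set on anti-HA fluorescence for expression and streptavidin fluorescence for reagent binding, and each polyreactivity label reflects the gate of origin.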

Row | Sequence | polyreactivity (PSR sort gate)
1 | QVQLVESGGGLVQAGGSLRLSCAASGSIYVKGWYRQAPGKERELVAAISTNGGRTYYADSVKGRFTISRDNAKITVYLQLTSLKPEDTAVYYCAVRTTPKTRRFYYWGQGTQVTVSS | high polyreactivity
2 | QVQLVESGGGLVQAGGSLRLSCAASGRTFRRNVMGWYRQAPGKERELVAAISSGANTNYADSVKGRFTISRDNAKNTVYLQMNSLKPEDTAVYYCAAGEGWRSRTFDYWGQGTQVTVSS | low polyreactivity
3 | QVQLVESGGGLVQAGGSLRLSCAASGSTFYFYAMGWYRQAPGKEREFVARISNRDGSTYYADSVKGRFTISRDNAKNTVYLQMNSLKPEDTAVYYCAVKQRASHYPYYSWGQGTQVTVSS | high polyreactivity
4 | QVQLVESGGGLVQAGGSLRLSCAASGSIFSSYAMVWYRQAPGKERELVAAIDGSGGSTYADSVKGRFTISRDHAKNTVYLQMNSLKPEDTAVYYCAADSYSGRYYWWEYDYWGQGTQVTVSS | low polyreactivity
5 | QVQLVESGGCLVKAGGSLRISCAASGFTFTKYAMGWYRPAPGKESELVAAINRSGRTYYADSVKGRFTISRDNAKNTVYLQMNSLKPEDTAVYDCAAYTRYQYRAYDYWGQGTQVTVSS | high polyreactivity
6 | QVQLVESGGGLVQAGGSLRLSCADSGRNFYIYAMGWYRKAPGKERELVAAISISGSTYYADSVKGRFTISRDNAKNTVFLQMNSLKPEDTAVYYCAARDPGVAVGAAFDSWGQGTQVTVSS | low polyreactivity
7 | QVQLVESGGGLVQAGGSLRLSCAASGRTFIPYAMGWYRQAPGKERELVATIRRGGSTYYADSVKGSFTISRDNAKNTVYLQMNSLKPEDTAVYYCAATRYSFGPRRVDYWGQGTQVSVSS | high polyreactivity
8 | QVQLQESGGGLVQACGSQRLSCAASGSISEGQDKGWYRRAPGKEREFVAGIAPGATTYYADSEKGRFTISRDNAKNTVYLQMNSLKPEDTAVYFCAARSVTETDHDYWGQGTQVTVSS | low polyreactivity
9 | QVQLVESGGGLVQAGGSLRLSCAASGITFWAYAMGWYRQAPGKERELVASISSGGSTYYADSVKGRFTISRDNAKNTVYLQMNSLKPEDTAVYYCAATTLRWYGDTFNYWGQGTQVTVSS | high polyreactivity
10 | QVQLVESGGGLVQAGGSLRLICAASGNIFVPSAMGWYRQAPGKERELVAAINGGGSTNYADSVKGRFTISRDNAKNTVYIQMISLKPEDTAVNYCAAVWYFLSLWYDYWGQGTQVTVSS | high polyreactivity
11 | QVQLQESGGGLVQAGGSLRLGCAASGNISDPGYMGWYRQAPGKEREFVAAIAAGSNTNYADSVKGRFTISRDNAKNTVYLLMNSLKPEDTAVFYCAVDSYARVQYEYWGQGTQVTVYS | low polyreactivity
12 | QVQLVESGGGLVQAGGSLRLSCAASGNIFPYNAMGWYRQAPGKERELVASISSGGSTNYADSVKGRFTISRDNAKNTVYLQMNSLKPEDTAVYYCAKDQSVLSRGGTYDYWGQGTQVTVSS | low polyreactivity
13 | QVQLVESGGGLVQAGGSLRLSCAASGSIFASYAMGWYRQAPGKERELVAAISDGGGRTYYADSVKGRFTISRDNAKNTVYLQMNSLKPEDTAVYYCAAYAVYTYRRARGYWGQGTQVTVSS | high polyreactivity
14 | QVQLVESGGGLVQAGGSLRLSCAASGITFTSNTMGWYRQAPGKERELVAAISKSGGSTYYADSVKGRFTISRDNEKNTVYLQMNSLKPEDTAVYYCNTVSFYDPFGAYGYWGQGTQVTVSS | high polyreactivity
15 | QVQLVESGGGLVQAGGSLRLSCAASGSIFNGYAMGWYRQAPGKERELVAAISWSGVGTYYADSVKGRFTISRDNAKNTVYLQMNSLKPEDTAVYYCAAALPLVDFYDYWGQGTQVTVSS | low polyreactivity
16 | QVQLVESGGGLVQEGGSLRLSCAASGRPFYNAMGWYRPAPGKERELVAGIRWSGASTYYADSVKGRFTISRDNAKNTVYLQMNSLKPEDTAVYYCAARRHSTRLRLTSDYWGHGTQVTVSS | high polyreactivity
17 | QVQLVESGGGLVQAGGSLRLSCAASGFTFDFYAMGWYRQAPGKERELVAVISSSGRTYYADSVKGRFTISRDNAKNTVYLQMNSLKPEDTAVYYCAAKAKRGHTYDYWGQGTQVTVSS | high polyreactivity
18 | QVQLVESGGGLVQAGGSLRLSCAATGSIFSLYAMGWYRQSPGKERELVADITYSGGNTYYADSVKGRFTISRDNAKNTVYLHMNSLKPEDTAVYYCNAYYFDYWYWYDYWGQGTQVTVSS | high polyreactivity
19 | QVQLVESGGGLVQAGGTLRLSCAASGSTFFVYAMAWYRQEPGKERELVAAISSRGSTYYADSVKGRFTISRDNAKNTVFLQMISLKPEDSAVYFCAAEYTVSYLRMDYWGQGTQVTVSS | low polyreactivity
20 | QVQLVESGGGLVQAGGSLRLSCAASGFIFGYYVMGWYRQAPGKERELVAAISGSGGRTYYADSVKGRFTISRDNAKNNVYLQMNSLKPEDTAVYYCNAVAFYRDYNYWGQGTQVTVSS | high polyreactivity
21 | QVQLVESGGGLVQAGGSLRLSCAASGSIFKIYAMGWYRQAPGKERELVASITGSGGSTYYADSVKGRFTISRDNAKNTVYLQMNSLKPEDTAVYYCAADVVRSNFYGTFLYDYDYWGQGTQVTVSS | low polyreactivity
22 | QVQLVESGGGLVQAGGSLRLSCAASGFTFTYNTMGWYRQAPGKEREMVAAISSTGGSTYYADSVKGRFTISRDNAKNTVYLQMNSLKPEDTAVYYCNACLPFSGRKRYGYWGQGTQVTVSS | high polyreactivity

Row | Sequence | polyreactivity (PSR sort gate)
23 | QVQLVESGGGLVQAGGSLRLSCAASGSIFGRYGAMGWYRQAPGKERELVAAIRTSGVSTYYADSVKGRFTISRDNAKKNVYLQMNSLKPEDTAVYYCAKGYTSYNLGKYGYWGQGTQVTVSS | high polyreactivity
24 | QVQLQESGGGLVKAGGSLRLSCAASGNISNHNDMGWYRQAPGKEREFVAGITAGGITNYADSVKGRFTISRDNAKNTGYLQMNSLKPEDTAVYYCAAYPDYAKSYGYWGQGTQATVSS | low polyreactivity
25 | QVHLVESGGRLVLAGGSLRLSCAASRRIFDLNAMRGYIQAPGKERELFAAITNTGSTNYADSVKGRFTISRDNAKNTVYLQMNSLKPEDTAVYYCARTYWLRYFGYRDDEYDYWGQGTQVTVSS | low polyreactivity
26 | QVQLVESGGGLVQAGGSLRLSCAASGSIFTGYAMGWYRQAPGKERELVAAISNSGTSTYYADSVKGRFTISRDNAKNTVYLQMNSLKPEDTAVYYCNTVGHRWLSDDDYWGQGTQVTVSS | low polyreactivity
27 | QVQLVESGGGLVQAGGSLRLSCAASGRIFGYNAMGWYRQAPGKERELVAAISGSGGSTYYADSVKGRFTISRDNAKNTVYLQMNSLKPEDTAVYYCATRHGRYPYTLDYWGQGTQVTVSS | low polyreactivity
28 | QVQLVESGGGLVQAGGSLRLSCAATGSTFDNYAMGWYRQAHGKERELVADITWSGGSTYYADSVKGRFTISRDNAKNTVYLQMNSLKPEDTAVYYCNTAGYYTKYDYWGQGTQVTVSS | low polyreactivity
29 | QVQLVESGGGLVQAGGSLRLSCAASGITFVPNAMGWYRQAPGKERELVAAITGNGGRTYYADSVKGRFTISRDNAKNTVYLQMNSLKPEDTAVYYCNGRKLYWAYTLSKYDYWGQGTQLTVSS | high polyreactivity
30 | QVQLVESGGGLVQAGGSLRLSCAASGFTFRYNAMGWYRQAPGKEREVVAAITSGGNTNYADSVKGRFTISRDNAKNTFYLQMNSLKPEDTAVYYCNTAWRDYVARLGGVGYDYWGQGTQVTVSS | high polyreactivity
31 | QVQLVESGGGLVQAGGSLRLSCAASGLTFSRYAMGWYRQAPGKERELVAAISSRSGSTFYADSVKGRFTISRDNAKNTVYLQMNSLKPEDTAVYYCAARRDWLGGYWGQGTQVTVSS | high polyreactivity
32 | QVQLVESGGGLDQAGRSLRLICAASVFTIHAYAMGRYRQAHGKERELVAAISASGGSTYYADSVKGRFTISRDNANNTVYLKMNSLKPEDTAVYYCNAGDYRTFYRRFDYWGQGTQVTVSS | low polyreactivity
33 | QVQLVESGGGLVQAGGSLRLSCAASGLTFGFYARGWYTQAPGKERQLVPRISNGGSTNYADSVKGRFTISRDNAKNTVYLQMNSLKPEDTAVYYCNAGLVLPPPGAYIVYFDQMDYWGQGTQVTVSS | low polyreactivity
34 | QVQLVESGGCLVQAGGSLRLSCAASGYTFSLNAMGWYRQAPGKERELVAAISYSGGSTYYADSVKGRFTISRDNAKNTVYLQMNSLKPEDTAVYYCAVRRPQYSYYWDFDYWGQGTQLTVSS | high polyreactivity
35 | QVQLVESGGGLVQAGGSLRLSCAASGSTFVYYAMGWYRQAPGKERELVAAITASGGRTYYADSVKGRFTISRDNAKNTVYLQMNSLKPEDTAVYYCNTVRPHGMDYWGQGTQVTVSS | high polyreactivity
36 | QVQLVESGGGLVQAGGSLRLSCAASGGTFVGYAMGWYRQAPGKEREFVAAISGSGGSTYYADSVKGRFTISRDNAKNTVYLQMNSLKPEDTAVYYCAARAVSRRFDYWGQGTQVTVSS | high polyreactivity
37 | QVQLVESGGGLVQAGGSLRLSCDASGSTFYPNAMGWYRQPPGKERELVAAITDSVCTTNYADSVKGRFTISRDNAKNTVYLQMNSLKPEDTAVYYCAKVKYYWNGYRYYYWGQGTQVTVSS | low polyreactivity
38 | QVQLVESGGGLVQAGGSLRLSCAASGRIFKQYTMGWYRQAPGKERELVAAITSSGAGTFYADSVKGRFTISRDNAKNTVYLQMNSLKPEDTAVYYCAASWSRRDRGFDYWGQGTQVTVSS | high polyreactivity
39 | QVQLVESGGGLVQAGGSLRLSCAASGSIFYGNAMGWYRQAPGKERELVARISWSGSNTRYADSVKGRFTISRDNAKNTVYLQMNSLKPEDTAVYYCNVKPSARGSPLYDYWGQGTQVTVSS | high polyreactivity
40 | QVQLVESGGGLVQAGGILRLSCAASGRIFVFYFMGWYRQAPGKERELVAAITRTGGSTYYADSVKGRFTISRDNAKNTVYLQMNSLKPEDTAFYYCATRYTRFRHFDYWGQGSQVTVSS | low polyreactivity
41 | QVQLVESGGGLVQAGGSLRLSCAASGFIFTYYAMGWYRQAPGKERELVAAISWDGGSTYYADSVKGRFTISRDNAKNTVYLQMNSLKPEDTAVYYCNRDLYGYVRYDYWGQGTQVTVSS | low polyreactivity
42 | QVQLLESGGGLVQPGGSLRLSCAASGRIFRHSAMGWYRQAPGKERELVAAISGGGGRTYYADSVKGRFTISRDNAKLSVDLQMNSLKPEDTAVYYCAAYRSRHYYYWGHGTQVTVSS | high polyreactivity
43 | QVQLVESGGGLVQAGGSLRLICDASGRIFQFYAMGWYRQAPGKERELVAVITRRGGSTHYADSVKGRFTISRDNAKNTVYLQMNSLNPEDTAVYYCAAEWQTQGYEYWGQGTQVTVSS | high polyreactivity
